Measured values reported in patent US20030124585A1, “Type II gonadotropin-releasing hormone receptor and polynucleotides encoding therefor” (Medical Research Council, priority 2000, published 2003).
Read-outs that look alike come from different tables or passages of the source. Square brackets hold non-standard residues; d marks the D form. Ends that are not written are not given here.

T1: Marmoset Type II GnRH receptor (marmoset)
T1 chain: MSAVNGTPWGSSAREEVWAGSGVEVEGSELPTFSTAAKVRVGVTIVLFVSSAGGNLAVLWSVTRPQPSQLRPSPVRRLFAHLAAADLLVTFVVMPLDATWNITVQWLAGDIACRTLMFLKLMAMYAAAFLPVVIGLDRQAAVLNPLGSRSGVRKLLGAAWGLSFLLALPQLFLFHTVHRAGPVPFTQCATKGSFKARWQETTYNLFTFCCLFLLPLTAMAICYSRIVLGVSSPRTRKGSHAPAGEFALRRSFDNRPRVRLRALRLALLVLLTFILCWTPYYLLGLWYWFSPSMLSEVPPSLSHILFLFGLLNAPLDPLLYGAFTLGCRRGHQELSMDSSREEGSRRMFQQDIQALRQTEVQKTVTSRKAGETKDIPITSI

T2: human Type I GnRH receptor (human, UniProt P30968 1-328)
T2 sequence (looked up): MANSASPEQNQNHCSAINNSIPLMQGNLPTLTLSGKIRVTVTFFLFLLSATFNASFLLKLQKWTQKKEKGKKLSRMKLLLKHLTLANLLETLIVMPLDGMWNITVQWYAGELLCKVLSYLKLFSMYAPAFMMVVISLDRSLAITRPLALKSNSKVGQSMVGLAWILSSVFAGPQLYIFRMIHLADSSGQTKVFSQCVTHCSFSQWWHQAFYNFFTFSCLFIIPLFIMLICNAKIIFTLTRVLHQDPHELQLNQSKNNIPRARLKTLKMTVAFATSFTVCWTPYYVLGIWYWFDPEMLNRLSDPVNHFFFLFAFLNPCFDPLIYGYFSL

T3: human Type I GnRH receptor (human), P30968
T3 chain: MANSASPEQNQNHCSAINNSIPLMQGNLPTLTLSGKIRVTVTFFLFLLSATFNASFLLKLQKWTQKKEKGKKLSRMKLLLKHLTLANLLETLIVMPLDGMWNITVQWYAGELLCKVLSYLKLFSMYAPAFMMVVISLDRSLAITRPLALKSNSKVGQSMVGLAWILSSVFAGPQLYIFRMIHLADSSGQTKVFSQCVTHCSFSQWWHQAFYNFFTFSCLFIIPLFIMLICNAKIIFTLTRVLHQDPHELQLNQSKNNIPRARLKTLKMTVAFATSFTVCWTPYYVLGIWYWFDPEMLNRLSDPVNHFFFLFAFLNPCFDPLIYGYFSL

T4: Marmoset Type II GnRH receptor (marmoset)
T4 chain: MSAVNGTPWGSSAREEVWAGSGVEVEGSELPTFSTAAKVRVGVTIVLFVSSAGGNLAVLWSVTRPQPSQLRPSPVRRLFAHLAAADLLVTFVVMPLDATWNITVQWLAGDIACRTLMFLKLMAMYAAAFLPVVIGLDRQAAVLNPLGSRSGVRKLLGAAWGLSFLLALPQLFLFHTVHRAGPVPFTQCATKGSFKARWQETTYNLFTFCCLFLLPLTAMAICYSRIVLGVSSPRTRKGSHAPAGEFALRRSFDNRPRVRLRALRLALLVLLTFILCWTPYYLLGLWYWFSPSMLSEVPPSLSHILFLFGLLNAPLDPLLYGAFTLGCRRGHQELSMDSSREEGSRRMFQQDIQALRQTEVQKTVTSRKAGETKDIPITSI


Tests used:
[1] = target: T1, Marmoset Type II GnRH receptor; test: cell-based or functional assay
[2] = target: T2, human Type I GnRH receptor; test: cell-based or functional assay
[3] = target: T1, Marmoset Type II GnRH receptor; test: receptor binding assay on COS-7 cells; reference mammalian GnRH I
[4] = target: T1, Marmoset Type II GnRH receptor; test: competition with ^125I-[His^5-D-Tyr^6]GnRH I on COS-7 cells expressing the receptor (n = 3-6)
[5] = target: T2, human Type I GnRH receptor; test: as above
[6] = target: T1, Marmoset Type II GnRH receptor; test: competition with ^125I-[His^5,D-Tyr^6]GnRH on COS-7 cells expressing marmoset Type II GnRH-R (FIG. 4, n=2)
[7] = target: T1, Marmoset Type II GnRH receptor; test: cell-based or functional assay
[8] = target: T1, Marmoset Type II GnRH receptor; test: receptor binding assay on COS-7 cells; reference human Type I GnRH receptor
[9] = target: T3, human Type I GnRH receptor (human), …; test: competition with ^125I-[His^5-D-Tyr^6]GnRH I on COS-7 cells expressing the receptor (n = 3-6)
[10] = target: T4, Marmoset Type II GnRH receptor …; test: as above
[11] = target: T4, Marmoset Type II GnRH receptor …; test: competition with ^125I-[His^5,D-Tyr^6]GnRH on COS-7 cells expressing marmoset Type II GnRH-R (FIG. 4, n=2)
[12] = target: T3, human Type I GnRH receptor (human), …; test: cell-based or functional assay
[13] = target: T4, Marmoset Type II GnRH receptor …; test: cell-based or functional assay

| InsP production (EC50) [1] [nM] | InsP production (EC50) [2] [nM] | fold greater activity relative to mammalian GnRH I [3] [fold] | IC50 [4] [nM] | IC50 [5] [nM] | IC50 [6] [nM] | stimulation of inositol phosphate production, fold greater activity relative to mammalian GnRH I [7] [fold] | total inositol phosphate production (EC50) [7] [nM] | fold greater affinity than for the Type I receptor [8] [fold] | IC50 [9] [nM] | IC50 [10] [nM] | IC50 [11] [nM] | InsP production (EC50) [12] [nM] | InsP production (EC50) [13] [nM] | total inositol phosphate production (EC50) [13] [nM] | Binder |
| --- | --- | --- | --- | --- | --- | --- | --- | --- | --- | --- | --- | --- | --- | --- | --- |
| 0.45 | 7.41 | 40 | 1.07 | 26.1 | 1.3 | 90 | 0.46 | 24 |  |  |  |  |  |  | QHWSHGWYPG (peptide, UniProt O43555 24-33, looked up, ends and bridges not checked, mature; also called GnRH Type II; Type II GnRH) [GnRH II] |
| 2.39 | 3.8 |  | 3.34 |  |  |  | 1.1 |  |  |  |  |  |  |  | QHWSH[dR]WYPG (peptide, UniProt O43555 24-33, looked up, ends and bridges not checked, mature; Synthetic analogue of GnRH II; also called [D-Arg^6]GnRH Type II) [[D-Arg^6]GnRH II] |
|  |  |  |  |  |  |  |  |  | 244 | 9.48 | 9.8 | 9.62 | 5.99 | 8.7 | QHWSYGWLPG (peptide, UniProt P01148 24-33, looked up, modifications not checked) [salmon GnRH, P01148 24-33] |
|  |  |  |  |  |  |  |  |  |  | 42.6 | 51.7 |  | 40.5 | 33.2 | QHWSYGLRPG (peptide, UniProt P01148 24-33, looked up, modifications not checked) [Mammalian GnRH I, P01148 24-33] |
